For this assay, the target named is SARS-CoV-2 RBD (residues 319-529), His-tagged (SARS-CoV-2 (prototypic strain), UniProt P0DTC2 319-529). The experiment in a line: SPR. The settings on record: both partners purified.

B1: raccoon dog ACE2 ectodomain (residues 1-614), Fc-tagged (Fc fusion)
chain: QSTEDLVNTFLEKFNYEAEELSYQSSLASWNYNTNITDENLQKMNNAGAKWSAFYEEQSKLAKTYPLEEIQDSTVKRQLRALQHSGSSVLSADKNQRLNTILNSMSTIYSTGKACNPSNPQECLLLEPGLDDIMENSKDYNERLWAWEGWRSEVGKQLRPLYEEYVALKNEMARANNYEDYGDYWRGDYEEEWENGYNYSRNQLIDDVEHTFTQIMPLYQHLHAYVRTKLMDTYPSYISPTGCLPAHLLGDMWGRFWTNLYPLTVPFGQKPNIDVTNAMVNQSWDARKIFKEAEKFFVSVGLPNMTQGFWENSMLTEPSDSWKVVCHPTAWDLGRGDFRIKMCTKVTMDDFLTAHHEMGHIQYDMAYAAQPFLLRNGANEGFHEAVGEIMSLSAATPNHLKNIGLLPPSFFEDSETEINFLLKQALTIVGTLPFTYMLEKWRWMVFKGEIPKDQWMKTWWEMKRNIVGVVEPVPHDETYCDPASLFHVANDYSFIRYYTRTIYQFQFQEALCQIAKHEGPLHKCDISNSSEAGQKLLEMLKLGKSKPWTYALEIVVGAKNMDVRPLLNYFEPLFTWLKEQNRNSFVGWNTDWSPYAD
Regarding B1, the affinity, expressed as Kd, was 399 nM.

In general, Kd refers to a measure of binding affinity in units of concentration. Low readings indicate tighter binding, high ones weaker binding.

The values above are taken from publication PMC11098500 (PLOS Pathogens, 2024).
